Target: SARS-CoV-2 receptor binding domain (RBD) (SARS-CoV-2, UniProt P0DTC2)
Experiment: BLI

B1: CV43 (antibody, V domains shown)
VH: QVQLVESGGGVVQPGRSLRLSCAASGFTFSSYAMHWVRQAPGKGLEWVAVISYDGSNKYYADSVKGRFTISRDNSKNTLYLQMNSLRAEDTAVYYCARVTVVHFDYWGQGTLVTVSS
VL: NFMLTQPHSVSESPGKTVTISCTGSSGSIASNYVQWYQQRPGSAPTTVIYEDNQRPSGVPDRFSGSIDSSSNSASLTISGLKTEDEADYYCQSYDSSNWVFGGGTKLTVL
- binding result: binds

B2: CV5 (antibody, V domains shown)
VH: QVQLVQSGAEVKKPGASVKVTCKASGYTFTSYYLHWVRQAPGQGLEWMGIINPSGGTTSYAQKFQGRVTMTRDTSTSTVYMELSSLRSEDTAVYYCARAGRRYSSSDDGAFDIWGQGTMVTVSS
VL: not shown
- binding result: binds

Source: article PMC7241105 (bioRxiv, 2020)
